Source: PMC3376167 (The Journal of Physical Chemistry. B, 2012)

Target: the molecule itself
Test: NMR 15N R2 relaxation

B1: HIF-1α PAS-B domain single mutant (R245E), construct 947 (domain or fragment)
chain: not shown
Q: Does B1 bind?
A: Result: binds
